Data published in paper PMC3947097 (Nature, 2013).
Each block holds one molecule with its values, some of them ahead of it.

Tests used:
[1] = target: ACP (Escherichia coli) (UniProt P0A6A8); conditions: cited from earlier work
[2] = target: T1, His6-LpxD (wild-type E. coli LpxD acyltransferase) (E. coli, UniProt P21645 3-341); assay: crystal structure
T1 sequence: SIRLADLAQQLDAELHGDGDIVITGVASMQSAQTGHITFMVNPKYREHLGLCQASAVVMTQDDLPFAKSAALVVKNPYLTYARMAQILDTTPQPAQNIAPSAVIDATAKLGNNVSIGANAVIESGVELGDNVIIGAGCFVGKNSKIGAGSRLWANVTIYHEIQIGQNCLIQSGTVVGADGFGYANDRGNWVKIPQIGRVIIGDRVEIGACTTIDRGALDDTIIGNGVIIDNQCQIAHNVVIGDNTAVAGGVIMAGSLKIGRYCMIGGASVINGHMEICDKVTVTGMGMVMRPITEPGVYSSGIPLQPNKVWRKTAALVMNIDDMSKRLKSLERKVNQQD

[3] = target: T2, His239Ala His6-LpxD (catalytically inactive) (E. coli, UniProt P21645 3-341, His239Ala); assay: crystal structure
T2 sequence: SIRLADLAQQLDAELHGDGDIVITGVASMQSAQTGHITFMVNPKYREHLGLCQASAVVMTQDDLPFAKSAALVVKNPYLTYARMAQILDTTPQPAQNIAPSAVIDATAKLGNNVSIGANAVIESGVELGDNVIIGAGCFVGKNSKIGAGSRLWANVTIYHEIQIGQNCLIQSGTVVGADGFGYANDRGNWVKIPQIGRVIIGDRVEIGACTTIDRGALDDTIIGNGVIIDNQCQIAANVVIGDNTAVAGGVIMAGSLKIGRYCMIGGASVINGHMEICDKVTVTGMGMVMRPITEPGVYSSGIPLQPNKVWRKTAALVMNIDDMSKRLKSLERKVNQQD

Molecule: LpxD (from UniProt P21645)
Kd [1]: 0.059 µM

binding result [2]: binds
B1: holo-ACP (E. coli acyl-carrier-protein with 4'-phosphopantetheine) (natural protein)
chain: SHMSTIEERVKKIIGEQLGVKQEEVTNNASFVEDLGADSLDTVELVMALEEEFDTEIPDEEAEKITTVQAAIDYINGHQA
modifications: 4'-phosphopantetheine (4'-PPT) attached to Ser36, free terminal thiol

stoichiometry N [3]: 3 ACP per LpxD trimer
B2: R-3-hydroxymyristoyl-ACP (intact-acyl-ACP) (natural protein, E. coli)
chain: SHMSTIEERVKKIIGEQLGVKQEEVTNNASFVEDLGADSLDTVELVMALEEEFDTEIPDEEAEKITTVQAAIDYINGHQA
modifications: 4'-phosphopantetheine attached to Ser36, carrying R-3-hydroxymyristoyl (β-OH-C14) in thioester linkage
